Assay results from patent publication US20030059862A1 (Human Genome Sciences, published 2003).

T1: biotinylated APRIL (Homo sapiens (Human), UniProt O75888 105-250, biotinylated using NHS-biotin at a molar ratio of 20:1 biotin:APRIL)
T1 construct: also called bio-APRIL
T1 sequence: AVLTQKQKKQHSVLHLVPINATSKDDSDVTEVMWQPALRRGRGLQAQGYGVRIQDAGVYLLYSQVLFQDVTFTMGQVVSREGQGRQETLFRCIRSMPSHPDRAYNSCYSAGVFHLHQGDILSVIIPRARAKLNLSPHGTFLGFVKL

T2: TACI (Homo sapiens (Human), UniProt O14836 1-154, limits assumed)
T2 sequence: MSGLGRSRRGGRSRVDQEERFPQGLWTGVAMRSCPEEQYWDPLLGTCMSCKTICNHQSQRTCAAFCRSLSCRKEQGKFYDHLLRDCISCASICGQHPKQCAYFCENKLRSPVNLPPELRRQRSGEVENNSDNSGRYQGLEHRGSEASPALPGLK

T3: LIGHT (Homo sapiens (Human), UniProt O43557 83-240, limits assumed)
T3 chain: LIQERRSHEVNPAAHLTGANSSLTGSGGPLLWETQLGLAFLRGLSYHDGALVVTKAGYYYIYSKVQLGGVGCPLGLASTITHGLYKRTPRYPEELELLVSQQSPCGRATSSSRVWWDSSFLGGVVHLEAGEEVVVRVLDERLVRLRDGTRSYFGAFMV

T4: BCMA (Homo sapiens (Human), UniProt Q02223 1-48, limits assumed)
T4 chain: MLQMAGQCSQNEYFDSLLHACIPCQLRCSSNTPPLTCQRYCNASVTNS

T5: BCMA fusion protein (Homo sapiens (Human), UniProt Q02223 1-48)
T5 construct: also called immobilized receptor
T5 chain: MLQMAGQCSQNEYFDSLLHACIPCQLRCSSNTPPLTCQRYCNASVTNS

T6: TACI fusion protein (Homo sapiens (Human), UniProt O14836 1-154)
T6 construct: also called immobilized receptor
T6 sequence: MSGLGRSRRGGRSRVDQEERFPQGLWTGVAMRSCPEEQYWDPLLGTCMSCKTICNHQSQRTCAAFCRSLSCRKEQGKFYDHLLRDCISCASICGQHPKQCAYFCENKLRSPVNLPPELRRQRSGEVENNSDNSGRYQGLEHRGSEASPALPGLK

B1: APRIL (Tumor Necrosis Factor Delta), human (ligand)
chain: AVLTQKQKKQHSVLHLVPINATSKDDSDVTEVMWQPALRRGRGLQAQGYGVRIQDAGVYLLYSQVLFQDVTFTMGQVVSREGQGRQETLFRCIRSMPSHPDRAYNSCYSAGVFHLHQGDILSVIIPRARAKLNLSPHGTFLGFVKL
notes: Soluble purified APRIL and FLAG-tagged APRIL were used in the selections; also called TNF-delta; human APRIL

Assays:
[1] = molecular target: B1; assay: Title of Table 1; scFv identified by phage display selection and phage ELISA (Example 1)
biotinylated APRIL [2] = molecular target: T1, biotinylated APRIL; assay: scFv inhibition of bio-APRIL (5 ng/ml) binding to coated BCMA fusion protein, streptavidin-DELFIA; partial inhibition; unit cell reads 'nM (3)'
Protocol: (§1) APRIL binds to BCMA with higher affinity than its binds to TACI so, inhibition of biotinylated APRIL (bio-APRIL) binding to BCMA can be used to screen selection outputs as periplasmic extracts for neutralizers and then assess potency of the positives as purified scFvs. To perform this assay, each well of a black 96 well flat-bottomed plate (Costar) was coated with 1.25 ng BCMA fusion protein overnight at 4° C. The wells were blocked with 3% milk in PBS for an hour at room temperature. ScFv were then added in the presence of 5 ng/ml biotinylated APRIL for 90 minutes at room temperature. Binding of biotinylated APRIL was detected via streptavidin Delfia (Wallac) added at a 1:1000 dilution in Delfia assay buffer (Wallac). After an hour at room temperature this was read on a Wallac 1420 workstation at 620 nm.

biotinylated APRIL [3] = molecular target: T1, biotinylated APRIL; assay: scFv inhibition of bio-APRIL (50 ng/ml) binding to coated TACI fusion protein, streptavidin-DELFIA; partial inhibition; unit cell reads 'nM (1)'
Protocol: as §1
(§2) An assay similar to that described above can also be used to test if anti-APRIL antibodies of the invention are able to inhibit binding of bio-APRIL to TACI. In this case, the plate was coated with 2.5 ng TACI fusion protein per well and scFv were added in the presence of 50 ng/ml biotinylated APRIL instead of 5 ng/ml. Otherwise, the method was identical to that for the BCMA:bio-APRIL assay.

biotinylated APRIL [4] = molecular target: T1, biotinylated APRIL; assay: scFv inhibition of bio-APRIL (5 ng/ml) binding to coated BCMA fusion protein, streptavidin-DELFIA; partial inhibition
Protocol: as §1

biotinylated APRIL [5] = molecular target: T1, biotinylated APRIL; assay: scFv inhibition of bio-APRIL (50 ng/ml) binding to coated TACI fusion protein, streptavidin-DELFIA; partial inhibition
Protocol: as §1, §2

biotinylated APRIL [6] = molecular target: T1, biotinylated APRIL; assay: receptor binding inhibition assay: scFv titrated with bio-APRIL (5 ng/ml); blocked binding of bio-APRIL to plate-coated BCMA fusion protein; streptavidin Delfia, fluorescence counts
Protocol: as §1

biotinylated APRIL [7] = molecular target: T1, biotinylated APRIL; assay: scFv inhibition of bio-APRIL (50 ng/ml) binding to coated TACI fusion protein, streptavidin-DELFIA
Protocol: as §1, §2

TACI = molecular target: T2, TACI; assay: Specificity phage ELISA (scFv on phage, anti-M13-HRP, A450)
Protocol: (§3) Flexible 96-well plates (Falcon) were coated overnight at 4° C. with each antigen (1 μg/ml). All antigens were coated in PBS. After coating, the solutions were removed from the wells, and the plates were blocked for 1 hour at room temperature in MPBS. The plates were washed 3 times with PBS and then 50 μl of pre-blocked phage was added to each well. The plates were incubated at room temperature for 1 hour and then washed with 3 changes of PBST followed by 3 changes of PBS.
(§4) To each well, 50 μl of an anti-M13-HRP conjugate (Pharmacia) at a 1 in 5000 dilution in MPBS was added and the plates incubated at room temperature for 1 hour. Each plate was washed three times with PBST followed by three times with PBS.
(§5) Fifty μl of TMB substrate was then added to each well, and incubated at room temperature for 30 minutes or until color development. The reaction was stopped by the addition of 25 μl of 0.5 M H₂SO₄. The signal generated was measured by reading the absorbance at 450 nm (A₄₅₀) using a microtitre plate reader (Bio-Rad 3550).

TNF-α = molecular target: T7, TNF-α (Homo sapiens (Human), UniProt P01375 77-233); assay: as above
T7 construct: also called TNF-alpha
Protocol: as §3, §4, §5

BLyS = molecular target: T8, BLyS (Homo sapiens (Human), UniProt Q9Y275 134-285); assay: as above
T8 construct: also called Neutrokine-alpha
Protocol: as §3, §4, §5

BSA = molecular target: T9, BSA (UniProt P02769 25-607); assay: as above
T9 construct: Unrelated control antigen coated at 1 µg/ml in the phage ELISAs
Protocol: as §3, §4, §5

LIGHT = molecular target: T3, LIGHT; assay: as above
Protocol: as §3, §4, §5

BCMA = molecular target: T4, BCMA; assay: as above
Protocol: as §3, §4, §5

biotinylated APRIL [8] = molecular target: T1, biotinylated APRIL; assay: scFv inhibition of bio-APRIL (5 ng/ml) binding to coated BCMA fusion protein, streptavidin-DELFIA
Protocol: as §1

BCMA fusion protein [9] = molecular target: T5, BCMA fusion protein; assay: receptor binding inhibition assay: unlabelled APRIL titrated against bio-APRIL (5 ng/ml, the competitor) for binding to plate-coated BCMA fusion protein; streptavidin Delfia, fluorescence counts
Protocol: as §1

TACI fusion protein [10] = molecular target: T6, TACI fusion protein; assay: Unlabelled APRIL titrated against 50 ng/ml bio-APRIL for binding to coated TACI fusion protein, streptavidin-DELFIA; inhibition was only partial
Protocol: as §1, §2

TACI fusion protein [11] = molecular target: T6, TACI fusion protein; assay: receptor binding inhibition assay: unlabelled APRIL titrated against bio-APRIL (50 ng/ml, the competitor) for binding to plate-coated TACI fusion protein; streptavidin Delfia, fluorescence counts
Protocol: as §1, §2

BCMA fusion protein [12] = molecular target: T5, BCMA fusion protein; assay: Unlabelled APRIL titrated against 5 ng/ml bio-APRIL for binding to coated BCMA fusion protein, streptavidin-DELFIA
Protocol: as §1

biotinylated APRIL [13] = molecular target: T1, biotinylated APRIL; assay: receptor binding inhibition assay: scFv titrated with bio-APRIL (50 ng/ml); blocked binding of bio-APRIL to plate-coated TACI fusion protein; streptavidin Delfia, fluorescence counts
Protocol: as §1, §2

T8 sequence (Q9Y275 134-285 limits assumed): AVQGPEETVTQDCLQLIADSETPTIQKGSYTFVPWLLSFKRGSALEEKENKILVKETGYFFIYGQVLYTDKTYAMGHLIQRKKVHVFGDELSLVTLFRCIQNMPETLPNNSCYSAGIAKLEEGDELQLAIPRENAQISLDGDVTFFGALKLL
T9 sequence (P02769 25-607 limits assumed): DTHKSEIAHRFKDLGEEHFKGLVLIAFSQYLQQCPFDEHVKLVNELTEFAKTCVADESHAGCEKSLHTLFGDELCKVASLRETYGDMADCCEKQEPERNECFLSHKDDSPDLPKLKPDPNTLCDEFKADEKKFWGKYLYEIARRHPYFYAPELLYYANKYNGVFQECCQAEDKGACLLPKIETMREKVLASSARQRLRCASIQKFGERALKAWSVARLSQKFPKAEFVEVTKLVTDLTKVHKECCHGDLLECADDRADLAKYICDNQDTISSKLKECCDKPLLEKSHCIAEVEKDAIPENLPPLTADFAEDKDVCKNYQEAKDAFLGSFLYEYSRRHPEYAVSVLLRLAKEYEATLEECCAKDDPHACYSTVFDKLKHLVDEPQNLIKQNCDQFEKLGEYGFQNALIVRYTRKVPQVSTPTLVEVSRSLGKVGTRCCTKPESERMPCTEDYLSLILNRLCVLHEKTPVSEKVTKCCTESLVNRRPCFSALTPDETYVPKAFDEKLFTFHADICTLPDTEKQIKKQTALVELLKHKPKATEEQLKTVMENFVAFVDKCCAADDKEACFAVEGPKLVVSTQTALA
T7 sequence (P01375 77-233 limits assumed): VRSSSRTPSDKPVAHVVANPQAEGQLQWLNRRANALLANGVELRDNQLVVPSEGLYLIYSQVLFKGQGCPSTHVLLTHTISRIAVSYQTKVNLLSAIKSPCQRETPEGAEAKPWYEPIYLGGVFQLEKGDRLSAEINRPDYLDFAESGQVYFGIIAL

Binder | IC50 (biotinylated APRIL [6]) | IC50 (biotinylated APRIL [7]) | binding result (TACI) | binding result (TNF-α) | binding result (BLyS) | binding result (BSA) | binding result (LIGHT) | binding result (BCMA) | IC50 (biotinylated APRIL [8]) | other results
A027H08 (scFv) scFv: QVQLQQSGAEVKKPGSSVKVSCKASGGTFSSYAISWVRQTPGQGLEWMGGIIPIFGAANYAQKFQGRVTITADESTSTAHMELSSLRSEDTAVYYCARGISGGMDVWGKGTLVTVSSGGGSGGGGSGGGGSDIQMTQSPSTLSASIGDRVTITCRASEGIYHWLAWYQQKPGKAPKLLIYKASSLASGAPSRFSGSGSGTDFTLTISSLQPDDFATYYCQQYSNYPLTFGGGTKLEIKR | – | – | – | – | – | – | – | – | – | binding result [1]: binds
A024G01 (scFv) scFv: EVQLVQSGAEVKKPGSSVKVSCKASGGTLSSDSITWVRQAPGQGLEWVGGLIPALGTANYAQKFQGRVTMTADRSTGTAYMELRSLKFDDTAVYYCARVSRTSYYDVLTDNNRYSYYMDVWGKGTLVTVSSGGGGSGGGGSGGGGSAHVILTQPPSVSVSPTQTATITCSGDHLGRKSLSWYQQKPGQSPVLVIYEDFKRPSGIPERFSASNSGYTATLTISGTQAMDEADYYCQAWDNRAVVFGGGTKLTVLG | – | – | – | – | – | – | – | – | – | IC50 (biotinylated APRIL [2]): 19 nM; IC50 (biotinylated APRIL [3]): 4 nM
A010D09 (scFv) scFv: QVQLVQSGAEVKKLGSSVKVSCKASGGTFSSYAISWVRQAPGQGLEWMGGIIPIFGTANYAQKFQGRVTITADESTSTAYMELSSLRSEDTAVYYCARDLSRLGMDVWGQGTTVTVSSGGGGSGGGGSGGGGSDIQMTQSPSTLSASIGDRVTITCRASEGIYHWLAWYQQKPGKAPKLLIYKASSLASGAPSRFSGSGSGTDFTLTISSLQPDDFATYYCQQYSNYPLTFGGGTKLEIKR | 3 nM | – | – | – | – | – | – | – | – | IC50 (biotinylated APRIL [4]): 2.3 nM; IC50 (biotinylated APRIL [5]): 12 nM
A004G02 (scFv) scFv: QVQLVQSGAEVKKPGSSVKVSCKASGGTFSSYGIRWVRQAPGQGLEWMGGIIPIFGTANYAQKFQGRVTITADEYTSTAYMELSSLRSEDTAVYYCARSNPQYDAFDIWGQGTTVTVSSGGGGSGGGGSGGGGSSYVLTQPPSVSGTPGQRVTVSCSGGRSNIGSNTVKWYQQLPGTAPKLLIYGNDQRPSGVPDRFSGSKSGNTASLTVSGLQVEDEADYYCQSYDSSLRGSVFGGGTKLTVLG | – | 800 nM | no binding (tested: antigen coated at 1 µg/ml) | no binding (tested: antigen coated at 1 µg/ml) | no binding (tested: antigen coated at 1 µg/ml) | no binding (tested: antigen coated at 1 µg/ml) | no binding (tested: antigen coated at 1 µg/ml) | no binding (tested: antigen coated at 1 µg/ml) | 19 nM | –
B1 | – | – | – | – | – | – | – | – | – | IC50 (BCMA fusion protein [9]): 0.043 nM; IC50 (TACI fusion protein [10]): 1.3 nM; IC50 (TACI fusion protein [11]): 0.165 nM; IC50 (BCMA fusion protein [12]): 0.048 nM
A019C11 (scFv) scFv: EVQLVQSGAEVKKPGASVKVSCKTSGYTFTDNYMHWVRQAPGQGLEWMGWISPNSSTTLYAQKFRGRVTLTRDTSVSTAYMELSGLDSDDTALYFCARGGRLAGSTVFTPAFEYWGRGTMVTVSSGGGGSGGGGSGGGGSAQAVLTQPSSVSEAPRQRVTISCSGSSSNIGNNAVKWYQQLPGKAPKLLIYYDDLLPSGVSDRFSGSKSGTSASLAISGLQSEDEADYYCAAWDDSLNGYVFGTGTKVTVLG | 10 nM | 10 nM | no binding (tested: antigen coated at 1 µg/ml) | no binding (tested: antigen coated at 1 µg/ml) | no binding (tested: antigen coated at 1 µg/ml) | no binding (tested: antigen coated at 1 µg/ml) | no binding (tested: antigen coated at 1 µg/ml) | no binding (tested: antigen coated at 1 µg/ml) | 4.3 nM | IC50 (biotinylated APRIL [13]): 7 nM
